Tests used:
mAdiponectin promoter = test: NHR-promoter luciferase screen, mAdiponectin promoter; type: cell-based, mouse; settings: for Luc. act., normalized to lacZ / Normalized Luc. act., normalized to control: Adiponectin, HR component without or with its ligand; for mAdiponectin promoter reporter activity: transcription factor +/- ligand, control = 1.00
Method: (§1) The use, feasibility, and reproducibility of the functional NHR-promoter screen in a 48-well format have been tested validated. Briefly, there were co-expressed 50 ng of each NHR/NHR homodimer or NHR/RXR heterodimer with 100 ng promoter/luciferase construct and 50 ng of LacZ (as a control for transfection efficiency) in CV-1 cells using Fugene HD (Roche) as a transfection reagent (alternatively or additionally, a CMV-YFP construct can be used as a transfection control). Each of the nuclear hormone receptors that were used in these experiments was cloned into a pcDNA3.1 vector and comprised a C-terminally linked V5H6 tag. Twenty-four hours after transfection, appropriate ligands were added, where applicable, (see Table 5 for various ligands and concentrations and after 48 hrs, samples were assayed for luciferase and LacZ activity. To measure for luciferase activity 15 ul of sample was added to 30 ul of luciferase buffer (20 mM tricine, 1.07 mM MgCarbonate, 2.67 mM MgSulfate, 0.1 mM Naz-EDTA, 5 mM DTT, 5 mM ATP, 0.15 mg/ml CoA, 0.5 mM Luciferin), mixed briefly, and run in a Perkin Elmer Victor 5 luminometer. Thus, the functional NHR-promoter screen was used to observe the transcriptional activity of 29 promoters from various physiological pathways including inflammation, lipid and sugar metabolism, cholesterol transport, xenobiotic metabolism, and circadian rhythm.
(§2) The promoters that facilitate transcription of the indicated gene products that were tested using the protocols described herein are listed in the first row of the table. The nuclear hormone receptors and, where applicable, ligands that were assayed for their transcriptional effects on the promoters are listed in the first column of the table. The data represent the luciferase activity of each sample normalized to both the lacZ activity of that sample and to a control, e.g., no NHR or ligand, as customary in the art. As described previously, these normalizations allow the transcriptional activity of each reporter cell to be compared to other samples.
(§3) Tables 7-40 show the transcriptional effects of the hormone receptors, and, where applicable, ligands (orphan receptors are screened without ligand), on each individual promoter. […] The control data of each table are shown in their last rows.

mPer1 promoter = test: NHR-promoter luciferase screen, mPer1 promoter; type: cell-based, mouse; settings: for Luc. act., normalized to lacZ / Normalized Luc. act., normalized to control: Per1 promoter reporter, co-transfected HR, with or without its ligand; for Normalized Luc. act., normalized to control: relative to control; for luciferase activity normalized to lacZ activity and to a control, mPer1: mPer1 promoter-luciferase, CV-1 cells, NHR +/- ligand, control = 1.00
Method: as §1, §2, §3

RevErba promoter = test: NHR-promoter luciferase screen, RevErba (RVRa) promoter; type: cell-based; parameters: key to mRevErba promoter reporter activity / Normalized Luc. act., normalized to control: luciferase activity normalized to lacZ and to control (no NHR/ligand); settings: for Luc. act., normalized to lacZ / Normalized Luc. act., normalized to control / normalized Luc. act. on a logarithmic scale (column without head, Table 33) / negative reciprocal of normalized Luc. act. (fold repression; Table 33): RVRa promoter; for Luc. act., normalized to lacZ / Normalized Luc. act., normalized to control: HR component without or with ligand; for normalized Luc. act. on a logarithmic scale (column without head, Table 33): log10 of activity normalized to control; for mRevErba promoter reporter activity: transcription factor +/- ligand, control = 1.00; for negative reciprocal of normalized Luc. act. (fold repression; Table 33): given only where activity is below control
Method: (§4) Briefly, there were co-expressed 50 ng of each NHR/NHR homodimer or NHR/RXR heterodimer with 100 ng promoter/luciferase construct and 50 ng of LacZ (as a control for transfection efficiency) in CV-1 cells using Fugene HD (Roche) as a transfection reagent (alternatively or additionally, a CMV-YFP construct can be used as a transfection control). Each of the nuclear hormone receptors that were used in these experiments was cloned into a pcDNA3.1 vector and comprised a C-terminally linked V5H6 tag.
as §2
The control data of each table are shown in their last rows.

mPgc1b promoter = test: NHR-promoter luciferase screen, mPgc1b promoter; type: cell-based, mouse; settings: for Luc. act., normalized to lacZ / Normalized Luc. act., normalized to control: PGC1b promoter reporter, co-transfected HR, without or with its ligand; for Normalized Luc. act., normalized to control: relative to control; for luciferase activity normalized to lacZ activity and to a control, mPgc1b: mPgc1b promoter-luciferase, CV-1 cells, NHR +/- ligand, control = 1.00
Method: as §4, §2, §3

hPPARg1 promoter = test: NHR-promoter luciferase screen, hPPARg1 promoter; type: cell-based, human; settings: for Luc. act., normalized to lacZ / Normalized Luc. act., normalized to control: PPARG1 promoter, hormone receptor with or without its ligand; for Normalized Luc. act., normalized to control: relative to control; for Results of assays of transcription factor (+/- ligand) with hPPARg1: Table 6d, luciferase activity relative to control (control = 1.00)
Method: as §1, §2, §3

Molecule | Luc. act., normalized to lacZ (mAdiponectin promoter) | Normalized Luc. act., normalized to control (mAdiponectin promoter) | mAdiponectin promoter reporter activity (mAdiponectin promoter) | Luc. act., normalized to lacZ (mPer1 promoter) | Normalized Luc. act., normalized to control (mPer1 promoter) | luciferase activity normalized to lacZ activity and to a control, mPer1 (mPer1 promoter) | Luc. act., normalized to lacZ (RevErba promoter) | Normalized Luc. act., normalized to control (RevErba promoter) | normalized Luc. act. on a logarithmic scale (column without head, Table 33) (RevErba promoter) | mRevErba promoter reporter activity (RevErba promoter) | Luc. act., normalized to lacZ (mPgc1b promoter) | Normalized Luc. act., normalized to control (mPgc1b promoter) | luciferase activity normalized to lacZ activity and to a control, mPgc1b (mPgc1b promoter) | Luc. act., normalized to lacZ (hPPARg1 promoter) | Normalized Luc. act., normalized to control (hPPARg1 promoter) | Results of assays of transcription factor (+/- ligand) with hPPARg1 (hPPARg1 promoter) | negative reciprocal of normalized Luc. act. (fold repression; Table 33) (RevErba promoter)
RORa: RAR-related Orphan Receptor α (NR1F1), cDNA driver (protein, UniProt P35398 1-523, looked up) Nuclear receptor ROR-alpha: MESAPAAPDPAASEPGSSGADAAAGSRETPLNQESARKSEPPAPVRRQSYSSTSRGISVTKKTHTSQIEIIPCKICGDKSSGIHYGVITCEGCKGFFRRSQQSNATYSCPRQKNCLIDRTSRNRCQHCRLQKCLAVGMSRDAVKFGRMSKKQRDSLYAEVQKHRMQQQQRDHQQQPGEAEPLTPTYNISANGLTELHDDLSNYIDGHTPEGSKADSAVSSFYLDIQPSPDQSGLDINGIKPEPICDYTPASGFFPYCSFTNGETSPTVSMAELEHLAQNISKSHLETCQYLREELQQITWQTFLQEEIENYQNKQREVMWQLCAIKITEAIQYVVEFAKRIDGFMELCQNDQIVLLKAGSLEVVFIRMCRAFDSQNNTVYFDGKYASPDVFKSLGCEDFISFVFEFGKSLCSMHLTEDEIALFSAFVLMSADRSWLQEKVKIEKLQQKIQLALQHVLQKNHREDGILTKLICKVSTLRALCGRHTEKLMAFKAIYPDIVRLHFPPLYKELFTSEFEPAMQIDG | 80.0 | 1.3 | 1.27 | 107.9 | 0.7 | 0.75 | 86.91 | 3.1 | 0.49 | 3.11 | 10.8 | 0.9 | 0.91 | 74.0 | 1.1 | 1.07 | –
RORg: RAR-related Orphan Receptor γ (NR1F3), cDNA driver (protein, UniProt P51449 1-518, looked up) Nuclear receptor ROR-gamma: MDRAPQRQHRASRELLAAKKTHTSQIEVIPCKICGDKSSGIHYGVITCEGCKGFFRRSQRCNAAYSCTRQQNCPIDRTSRNRCQHCRLQKCLALGMSRDAVKFGRMSKKQRDSLHAEVQKQLQQRQQQQQEPVVKTPPAGAQGADTLTYTLGLPDGQLPLGSSPDLPEASACPPGLLKASGSGPSYSNNLAKAGLNGASCHLEYSPERGKAEGRESFYSTGSQLTPDRCGLRFEEHRHPGLGELGQGPDSYGSPSFRSTPEAPYASLTEIEHLVQSVCKSYRETCQLRLEDLLRQRSNIFSREEVTGYQRKSMWEMWERCAHHLTEAIQYVVEFAKRLSGFMELCQNDQIVLLKAGAMEVVLVRMCRAYNADNRTVFFEGKYGGMELFRALGCSELISSIFDFSHSLSALHFSEDEIALYTALVLINAHRPGLQEKRKVEQLQYNLELAFHHHLCKTHRQSILAKLPPKGKLRSLCSQHVERLQIFQHLHPIVVQAAFPPLYKELFSTETESPVGLSK | 133.3 | 2.1 | 2.12 | 176.3 | 1.2 | 1.22 | 67.79 | 2.4 | 0.38 | 2.42 | 15.9 | 1.3 | 1.34 | 81.5 | 1.2 | 1.18 | –
RVRa: Rev-Erb α (NR1D1), cDNA driver (protein, UniProt P20393 1-614, looked up) Nuclear receptor subfamily 1 …: MTTLDSNNNTGGVITYIGSSGSSPSRTSPESLYSDNSNGSFQSLTQGCPTYFPPSPTGSLTQDPARSFGSIPPSLSDDGSPSSSSSSSSSSSSFYNGSPPGSLQVAMEDSSRVSPSKSTSNITKLNGMVLLCKVCGDVASGFHYGVHACEGCKGFFRRSIQQNIQYKRCLKNENCSIVRINRNRCQQCRFKKCLSVGMSRDAVRFGRIPKREKQRMLAEMQSAMNLANNQLSSQCPLETSPTQHPTPGPMGPSPPPAPVPSPLVGFSQFPQQLTPPRSPSPEPTVEDVISQVARAHREIFTYAHDKLGSSPGNFNANHASGSPPATTPHRWENQGCPPAPNDNNTLAAQRHNEALNGLRQAPSSYPPTWPPGPAHHSCHQSNSNGHRLCPTHVYAAPEGKAPANSPRQGNSKNVLLACPMNMYPHGRSGRTVQEIWEDFSMSFTPAVREVVEFAKHIPGFRDLSQHDQVTLLKAGTFEVLMVRFASLFNVKDQTVMFLSRTTYSLQELGAMGMGDLLSAMFDFSEKLNSLALTEEELGLFTAVVLVSADRSGMENSASVEQLQETLLRALRALVLKNRPLETSRFTKLLLKLPDLRTLNNMHSEKLLSFRVDAQ | 55.2 | 0.9 | 0.88 | 98.6 | 0.7 | 0.68 | 9.76 | 0.3 | −0.46 | 0.35 | 8.8 | 0.7 | 0.74 | 45.9 | 0.7 | 0.67 | −2.865
RVRb: Rev-Erb β (NR1D2, alternative name RVR), cDNA driver (protein, UniProt Q14995 1-579, looked up) Nuclear receptor subfamily 1 …: MEVNAGGVIAYISSSSSASSPASCHSEGSENSFQSSSSSVPSSPNSSNSDTNGNPKNGDLANIEGILKNDRIDCSMKTSKSSAPGMTKSHSGVTKFSGMVLLCKVCGDVASGFHYGVHACEGCKGFFRRSIQQNIQYKKCLKNENCSIMRMNRNRCQQCRFKKCLSVGMSRDAVRFGRIPKREKQRMLIEMQSAMKTMMNSQFSGHLQNDTLVEHHEQTALPAQEQLRPKPQLEQENIKSSSPPSSDFAKEEVIGMVTRAHKDTFMYNQEQQENSAESMQPQRGERIPKNMEQYNLNHDHCGNGLSSHFPCSESQQHLNGQFKGRNIMHYPNGHAICIANGHCMNFSNAYTQRVCDRVPIDGFSQNENKNSYLCNTGGRMHLVCPMSKSPYVDPHKSGHEIWEEFSMSFTPAVKEVVEFAKRIPGFRDLSQHDQVNLLKAGTFEVLMVRFASLFDAKERTVTFLSGKKYSVDDLHSMGAGDLLNSMFEFSEKLNALQLSDEEMSLFTAVVLVSADRSGIENVNSVEALQETLIRALRTLIMKNHPNEASIFTKLLLKLPDLRSLNNMHSEELLAFKVHP | 66.3 | 1.1 | 1.06 | 118.3 | 0.8 | 0.82 | 2.06 | 0.1 | −1.13 | 0.07 | 9.3 | 0.8 | 0.78 | 55.5 | 0.8 | 0.81 | −13.5606
